Earlier results on one substance are cited in article PMC6611588, “Quantitative high-throughput screening assays for the discovery and development of SIRPα-CD47 interaction inhibitors” (PLoS ONE, 2019).

For orientation: Kd means the constant that tells how readily two partners part at equilibrium.

Several values for one entry are separate records, joined by “and”; a condition that tells them apart may be missing. Equal entries are not always repeated.

In the data set the target is CD47 (Homo sapiens) (UniProt Q08722). As to conditions: cited from earlier work.
CD47 (Homo sapiens), sequence (Q08722 19-323): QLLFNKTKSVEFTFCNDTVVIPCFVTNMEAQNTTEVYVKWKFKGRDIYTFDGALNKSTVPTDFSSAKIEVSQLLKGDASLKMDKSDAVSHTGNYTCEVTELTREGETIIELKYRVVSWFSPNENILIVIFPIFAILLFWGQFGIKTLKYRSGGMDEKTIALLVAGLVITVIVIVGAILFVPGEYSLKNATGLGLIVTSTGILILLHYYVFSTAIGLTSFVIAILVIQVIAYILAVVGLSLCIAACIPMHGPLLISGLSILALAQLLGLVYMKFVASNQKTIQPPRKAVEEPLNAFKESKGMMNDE

SIRPα, sequence (P78324 31-373): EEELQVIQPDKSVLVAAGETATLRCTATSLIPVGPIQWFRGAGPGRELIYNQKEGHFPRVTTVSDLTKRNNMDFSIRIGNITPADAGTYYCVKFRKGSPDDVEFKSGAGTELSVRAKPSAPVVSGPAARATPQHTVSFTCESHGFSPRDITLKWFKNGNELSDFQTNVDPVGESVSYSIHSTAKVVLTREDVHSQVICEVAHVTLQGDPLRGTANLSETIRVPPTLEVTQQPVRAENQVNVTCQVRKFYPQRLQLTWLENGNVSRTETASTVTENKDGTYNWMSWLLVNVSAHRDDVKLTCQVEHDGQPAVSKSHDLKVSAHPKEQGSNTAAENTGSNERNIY

As for SIRPα (from UniProt P78324), the dissociation constant Kd is 300 nM and 279 nM.
